Source: US20130058911

Tested on: metmyoglobin

| Substance | metmyoglobin reduction activity (change in A406 with NADH) |
| --- | --- |
| recombinant malate dehydrogenase (MDH) of Bacillus natto with C-terminal 6x His-tag | the activity of MDH was not found |
| recombinant putative NAD(P)H nitroreductase (yodC) of Bacillus natto with C-terminal 6x His-tag | the activity of yodC was confirmed |
